Laboratory results as given in article PMC5012862, “Structural characterization of encapsulated ferritin provides insight into iron storage in bacterial nanocompartments” (eLife, 2016).
Residue numbers refer to the chain shown, from its start. In names and notes the source's numbering stands.

Assays:
[1] = target: EncFtnsH H65A mutant (Rhodospirillum rubrum) (UniProt Q2RVS1); assay: crystal structure; hanging drop, 292 K, 0.14 M calcium acetate, 15% PEG 3350; cryoprotectant with 1 mM FeSO4; three decamers in the asymmetric unit; mutants crystallized in the same manner
[2] = target: EncFtnsH H65A mutant (Rhodospirillum rubrum) (UniProt Q2RVS1); assay: native MS; nESI, 100 mM ammonium acetate pH 8.0, about 5 uM protein; apo protein made in minimal medium, no Fe2+ added
[3] = target: the molecule itself; assay: SEC; preparative Superdex 200 16/60 after nickel affinity; 50 mM Tris-HCl pH 8.0, 150 mM NaCl; protein from E. coli grown in SeMet medium + 1 mM Fe(NH4)2(SO4)2, in MM, or in MM + 1 mM Fe(NH4)2(SO4)2
[4] = target: Q2RVS1; assay: SEC; analytical gel filtration, Superdex 200 PC 3.2/30 (Table 3 caption: 10/300 GL), 15 C, GF buffer; 90 uM EncFtnsH monomer or decamer fractions, alone or after 2 h at room temperature with one molar equivalent of metal salt
[5] = target: the molecule itself; assay: SEC; analytical gel filtration of EncFtnsH monomer at 700 uM, compared with 90 uM; no metal added
[6] = target: the molecule itself; assay: SEC; preparative Superdex 200 16/60 after nickel affinity; 50 mM Tris-HCl pH 8.0, 150 mM NaCl; protein from E. coli grown in SeMet medium + 1 mM Fe(NH4)2(SO4)2, in MM, or in MM + 1 mM Fe(NH4)2(SO4)2; remark: listed apart in the source
[7] = target: the molecule itself; assay: SEC; size-exclusion chromatography of the purified full-length EncFtn; column and buffer not told for this protein

Work on “EncFtnsH H65A mutant (from UniProt Q2RVS1 1-96) (domain or fragment)” yielded a stoichiometry N [1] of 10 and a stoichiometry N [2] of 2.

B1: EncFtnsH: truncated C-terminal hexahistidine-tagged variant of Rhodospirillum rubrum encapsulated ferritin (EncFtn, Rru_A0973), amino acids 1-96 plus the tag (domain or fragment, UniProt Q2RVS1 1-96, looked up)
chain: MAQSSNSTHEPLEVLKEETVNRHRAIVSVMEELEAVDWYDQRVDASTDPELTAILAHNRDEEKEHAAMTLEWLRRNDAKWAEHLRTYLFTEGPITA
notes: amino acids 1-96 of the 140-residue protein; Monomer predicted mass 13,194.53 Da with the tag; also called wild-type EncFtnsH; WT; source: for crystals anion exchange and SEC; not shown: His6, C-terminal, kept
For B1, the “stoichiometry N” value [3] was 10, the decamer/monomer peak area ratio (decamer fractions, no metal added, day 1) [4] was 11.2 and the decamer/monomer peak area ratio (monomer fractions, no metal added, day 1) [4] was 0.1. It also gave a decamer/monomer peak area ratio (monomer fractions, no metal added, day 2) [4] of 0.4, a decamer/monomer peak area ratio (monomer fractions, no metal added, day 3) [4] of 0.3 and a decamer/monomer peak area ratio (with Ca acetate) [4] of 0.2. The decamer/monomer peak area ratio (with CoCl2) [4] was 1.2, the decamer/monomer peak area ratio (with Fe(NH4)2(SO4)2) [4] was 0.8 and the decamer/monomer peak area ratio (with FeCl3) [4] was 0.1. For the same molecule, the decamer/monomer peak area ratio (with FeSO4-HCl) [4] was 1, the decamer/monomer peak area ratio (with MgSO4) [4] was 0.2 and the decamer/monomer peak area ratio (with MnCl2) [4] was 0.1. For the same molecule, the decamer/monomer peak area ratio (with ZnSO4) [4] was 2.3, the “stoichiometry N” value [5] was 2 and the “decamer/monomer peak area ratio (cells grown in MM + 1 mM Fe(NH4)2(SO4)2)” value [6] was 4.5.

B2: EncFtnsH E32A mutant (domain or fragment, Rhodospirillum rubrum, UniProt Q2RVS1 1-96, looked up)
chain: B1 chain with E32A
notes: amino acids 1-96, with E32A; Single mutant of EncFtnsH; source: E. coli BL21(DE3) grown in MM or MM supplemented with iron; purified (Superdex 200 SEC); not shown: His6, C-terminal, kept
For B2, the “stoichiometry N” value [3] was 10.

B3: EncFtnsH E62A mutant (domain or fragment, Rhodospirillum rubrum, UniProt Q2RVS1 1-96, looked up)
chain: B1 chain with E62A
notes: amino acids 1-96, with E62A; Single mutant of EncFtnsH; source: E. coli BL21(DE3) grown in MM or MM supplemented with iron; purified (Superdex 200 SEC); not shown: His6, C-terminal, kept
In the case of B3, the “stoichiometry N” value [3] is reported as 10.

B4: Rhodospirillum rubrum EncFtn, full-length sequence (140 amino acids), purified alone (natural protein, UniProt Q2RVS1 1-140, looked up)
chain: MAQSSNSTHEPLEVLKEETVNRHRAIVSVMEELEAVDWYDQRVDASTDPELTAILAHNRDEEKEHAAMTLEWLRRNDAKWAEHLRTYLFTEGPITAIEAADTAGEGSGGDAAKGATAQGDGSLGIGSLKGEAALARPPRL
notes: primers are in Supplementary file 2; also called encapsulated ferritin; source: E. coli, recombinant, purified (SEC)
B4: binds [7].
